The subject of data set [1] is LexA(1-202)-AHRNΔ166 chimera (synthetic construct). Briefly: cell_activity. To be noted: average lacZ induction over background, agonist dependent.
Data set [2] concerns human AhR + ARNT expressed in yeast (Homo sapiens). Briefly: cell_activity. To be noted: lacZ induction over background by betaNF or alphaNF; none with AHR or ARNT only.

In the case of “eight LexA operator lacZ reporter (pSH18-34)”, the activity in data set [1] is 90 fold.

On to DRE2-DRE3 lacZ reporter (pDRE23-Z), for which, in data set [2], the activity worked out at 12 fold.

The values are drawn from US5650283.
